Assay results taken from publication PMC9023281, “Polymerase theta-helicase promotes end joining by stripping single-stranded DNA-binding proteins and bridging DNA ends”.

Columns and labels:
[1] = target: T1, Polθ-h (Polθ helicase domain) (UniProt O75417 1-894); assay: EMSA; no PARP-1 modification; hyperbolic fit; Imaging Buffer: 40 mM Tris-HCl pH 8.0, 50 mM NaCl, 2 mM MgCl2, 1 mM DTT, 0.2 mg/ml BSA, 1 mM ATP; EMSA at room temperature, single-molecule at 37 C; PARP-1 tethering without BSA; displacement EMSA in 30 mM HEPES pH 8.0, 50 mM NaCl, 1.5 mM MgCl2, 1 mM DTT; conditions: protein: recombinant; tags: pET19 N-terminal 6xHis-TwinStrep-SUMO; chain copies: 4; label: 5'-32P in EMSA; unlabeled as challenge in tethering assay
T1 sequence (O75417 1-894): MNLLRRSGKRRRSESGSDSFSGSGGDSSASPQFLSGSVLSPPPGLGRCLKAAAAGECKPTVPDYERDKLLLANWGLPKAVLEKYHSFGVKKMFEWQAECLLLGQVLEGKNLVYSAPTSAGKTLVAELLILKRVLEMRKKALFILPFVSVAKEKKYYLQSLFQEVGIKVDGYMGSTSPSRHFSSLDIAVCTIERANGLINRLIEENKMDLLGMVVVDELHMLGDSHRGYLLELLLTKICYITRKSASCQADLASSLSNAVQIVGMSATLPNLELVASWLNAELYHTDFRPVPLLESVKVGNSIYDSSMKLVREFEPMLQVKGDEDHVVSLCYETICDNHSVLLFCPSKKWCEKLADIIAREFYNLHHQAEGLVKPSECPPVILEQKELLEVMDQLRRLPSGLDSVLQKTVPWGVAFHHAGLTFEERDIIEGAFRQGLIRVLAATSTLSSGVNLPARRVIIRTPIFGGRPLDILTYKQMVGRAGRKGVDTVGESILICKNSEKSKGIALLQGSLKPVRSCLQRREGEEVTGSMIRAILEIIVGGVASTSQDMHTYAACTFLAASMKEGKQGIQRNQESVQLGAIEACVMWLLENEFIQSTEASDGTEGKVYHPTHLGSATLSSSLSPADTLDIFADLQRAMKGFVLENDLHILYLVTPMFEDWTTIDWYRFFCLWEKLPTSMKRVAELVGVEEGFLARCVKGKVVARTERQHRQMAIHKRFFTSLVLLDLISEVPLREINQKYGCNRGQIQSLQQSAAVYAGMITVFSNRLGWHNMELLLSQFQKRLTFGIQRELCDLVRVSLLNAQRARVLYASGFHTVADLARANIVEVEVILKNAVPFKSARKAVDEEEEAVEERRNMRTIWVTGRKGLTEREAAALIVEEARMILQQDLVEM

[2] = target: T1, Polθ-h (Polθ helicase domain); assay: single-molecule ssDNA curtain oligo capture; captured in trans by Polθ-h on RPA-GFP-coated ssDNA; no capture without Polθ-h; Imaging Buffer: 40 mM Tris-HCl pH 8.0, 50 mM NaCl, 2 mM MgCl2, 1 mM DTT, 0.2 mg/ml BSA, 1 mM ATP; EMSA at room temperature, single-molecule at 37 C; PARP-1 tethering without BSA; displacement EMSA in 30 mM HEPES pH 8.0, 50 mM NaCl, 1.5 mM MgCl2, 1 mM DTT; conditions: protein: recombinant; tags: pET19 N-terminal 6xHis-TwinStrep-SUMO; chain copies: 4; label: 5'-Atto647N

B1: dT50 (Poly-T50) (ssDNA)
DNA: TTTTTTTTTTTTTTTTTTTTTTTTTTTTTTTTTTTTTTTTTTTTTTTTTT
Kd [1]: 39 ± 12 nM

B2: Noncomp-647N (ssDNA)
DNA: TCCTCTTTTTCTTTTTTTCTTTTCTTCC
binding result [2]: binds
